Measured values from patent US20250026849A1 (ARCELLX, published 2025).

T1: BCMA (Homo sapiens (Human), UniProt Q02223 1-54, limits assumed)
T1 sequence: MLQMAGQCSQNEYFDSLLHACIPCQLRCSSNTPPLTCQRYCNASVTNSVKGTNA


Target: T1, BCMA
Test: ELISA, format not described
Set-up: unit not given here

ELISA_avg	Binder
13.7	D-domain SEQ ID NO: 135 (designed binder) MGSWIEFDRRLLAIHVRLWALGGSEAELAAFEKEIAAFESELQAYKGKGNPEVEVLRADAAKIRMELQAYRHN
4.06	D-domain SEQ ID NO: 138 (designed binder) MGSWYEFHTRLIAIYVRLWALGGSEAELAAFEKEIAAFESELQAYKGKGNPEVEWLRGDAAKIRGYLQAYRHN
5.35	D-domain SEQ ID NO: 139 (designed binder) MGSWSEFSTRLSAIYVRLWALGGSEAELAAFEKEIAAFESELQAYKGKGNPEVEYLRNKAASIRKTLQAYRHN
9.45	D-domain SEQ ID NO: 136 (designed binder) MGSWIEFDRRLIAIWIRLWALGGSEAELAAFEKEIAAFESELQAYKGKGNPEVESLRSDAADIRQKLQAYRHN
9.82	D-domain SEQ ID NO: 134 (designed binder) MGSWLEFDRRLTAIYLRLWALGGSEAELAAFEKEIAAFESELQAYKGKGNPEVEALREDAAMIRDMLQAYRHN
5.77	D-domain SEQ ID NO: 137 (designed binder) MGSWVEFDRRLIAIWVRLWALGGSEAELAAFEKEIAAFESELQAYKGKGNPEVEFLRSDAAMIREHLQAYRHN
10.8	D-domain SEQ ID NO: 140 (designed binder) MGSWVEFRYRLGAIYHRLWALGGSEAELAAFEKEIAAFESELQAYKGKGNPEVEVLRDRAATIRRLLQAYRHN
4.7	D-domain SEQ ID NO: 141 (designed binder) MGSWNEFRNRLGAIDSRLWALGGSEAELAAFEKEIAAFESELQAYKGKGNPEVETLRAHAAIIRSVLQAYRHN
3.07	D-domain SEQ ID NO: 194 (designed binder) MGSWVEFWDRLGAIRERLQALGGSEAELAAFEKEIAAFESELQAYKGKGNPEVEELRASAAAIRIALQAYRHN
18.8	D-domain SEQ ID NO: 208 (designed binder) MGSWSEFWERLEAIYDRLYALGGSEAELAAFEKEIAAFESELQAYKGKGNPEVEELRRTAATIRSFLQAYRHN
16.1	D-domain SEQ ID NO: 202 (designed binder) MGSWSEFWDRLTAIRVRLDALGGSEAELAAFEKEIAAFESELQAYKGKGNPEVEKLRYTAAHIRKFLQAYRHN
12.5	D-domain SEQ ID NO: 214 (designed binder) MGSWTEFWARLYAIEMRLFALGGSEAELAAFEKEIAAFESELQAYKGKGNPEVEHLRRVAALIREQLQAYRHN
7.56	D-domain SEQ ID NO: 197 (designed binder, also called bc40) MGSWSEFWVRLGAIRERLDALGGSEAELAAFEKEIAAFESELQAYKGKGNPEVEKLRYTAATIRRFLQAYRHN
12.8	D-domain SEQ ID NO: 204 (designed binder) MGSWFEFWDRLAAIRDRLEALGGSEAELAAFEKEIAAFESELQAYKGKGNPEVEDLRYVAAKIRVRLQAYRHN
12.5	D-domain SEQ ID NO: 205 (designed binder) MGSWTEFWVRLNAIRDRLEALGGSEAELAAFEKEIAAFESELQAYKGKGNPEVEDLRHTAAIIRNYLQAYRHN
4.18	D-domain SEQ ID NO: 193 (designed binder) MGSWVEFWDRLGAIRERLEALGGSEAELAAFEKEIAAFESELQAYKGKGNPEVEKLRYVAAVIRHRLQAYRHN
5.22	D-domain SEQ ID NO: 185 (designed binder) MGSWVEFWDRLGAIRERLQALGGSEAELAAFEKEIAAFESELQAYKGKGNPEVEKLRYTAAAIRHYLQAYRHN
23.5	D-domain SEQ ID NO: 196 (designed binder) MGSWSEFWVRLGAIRDRLDALGGSEAELAAFEKEIAAFESELQAYKGKGNPEVEALRVTAAQIRHYLQAYRHN
19.9	D-domain SEQ ID NO: 206 (designed binder) MGSWVEFWHRLGAIYDRLEALGGSEAELAAFEKEIAAFESELQAYKGKGNPEVEELRRTAALIRQTLQAYRHN
14.6	D-domain SEQ ID NO: 207 (designed binder) MGSWVEFWNRLGAIYDRLEALGGSEAELAAFEKEIAAFESELQAYKGKGNPEVEKLRHTAAVIRLYLQAYRHN
3.93	D-domain SEQ ID NO: 209 (designed binder) MGSWEEFDNRLEAIFDRLEALGGSEAELAAFEKEIAAFESELQAYKGKGNPEVEELREFAATIRITLQAYRHN
16	D-domain SEQ ID NO: 195 (designed binder) MGSWVEFWDRLGAIRDRLDALGGSEAELAAFEKEIAAFESELQAYKGKGNPEVEELRNTAAYIRTFLQAYRHN

More lines, now with the values behind:

Binder	ELISA_avg
D-domain SEQ ID NO: 124 (designed binder) MGSWNEFHHRLWAIFDRLGALGGSEAELAAFEKEIAAFESELQAYKGKGNPEVEVLRKMAAGIRGGLQAYRHN	3.88
D-domain SEQ ID NO: 125 (designed binder) MGSWYEFHYRLKAINDRLYALGGSEAELAAFEKEIAAFESELQAYKGKGNPEVEYLRYSAAMIRHKLQAYRHN	6.04
D-domain SEQ ID NO: 126 (designed binder) MGSWTEFHQRLGAIHARLGALGGSEAELAAFEKEIAAFESELQAYKGKGNPEVEYLRFSAAFIRLKLQAYRHN	8.87
D-domain SEQ ID NO: 127 (designed binder) MGSWFEFQYRLEAIFYRLLALGGSEAELAAFEKEIAAFESELQAYKGKGKPEVEELRVRAALIRHLLQAYRHN	17.3
D-domain SEQ ID NO: 118 (designed binder) MGSWYEFEDRLVAIWIRLDALGGSEAELAAFEKEIAAFESELQAYKGKGNPEVEELRYNAAFIRGALQAYRHN	4.93
D-domain SEQ ID NO: 131 (designed binder) MGSWVEFHGRLAAIYVRLFALGGSEAELAAFEKEIAAFESELQAYKGKGNPEVESLRYHAAMIRRNLQAYRHN	4
D-domain SEQ ID NO: 128 (designed binder) MGSWVEFHARLDAIYTRLGALGGSEAELAAFEKEIAAFESELQAYKGKGNPEVEYLRVLAAHIRISLQAYRHN	3.8
D-domain SEQ ID NO: 119 (designed binder) MGSWYEFGDRLSAIWERLAALGGSEAELAAFEKEIAAFESELQAYKGKGNPEVEYLRTHAAEIRTILQAYRHN	8.89
D-domain SEQ ID NO: 129 (designed binder) MGSWVEFGTRLSAIYNRLWALGGSEAELAAFEKEIAAFESELQAYKGKGNPEVEDLRFEAAIIRIMLQAYRHN	15.4
D-domain SEQ ID NO: 130 (designed binder) MGSWVEFTHRLDAIYIRLWALGGSEAELAAFEKEIAAFESELQAYKGKGNPEVEELRHEAAVIREELQAYRHN	13.9
D-domain SEQ ID NO: 116 (designed binder) MGSWVEFDERLVAIWFRLHALGGSEAELAAFEKEIAAFESELQAYKGKGNPEVEALRARAAYIRIWLQAYRHN	8.96
D-domain SEQ ID NO: 132 (designed binder) MGSWVEFDRRLVAIYIRLWALGGSEAELAAFEKEIAAFESELQAYKGKGNPEVEALRDDAALIRLLLQAYRHN	8.93
D-domain SEQ ID NO: 117 (designed binder) MGSWSEFGQRLSAIWERLLALGGSEAELAAFEKEIAAFESELQAYKGKGNPEVEALRADAAFIRIWLQAYRHN	14
D-domain SEQ ID NO: 133 (designed binder) MGSWVEFDRRLVAIYIRLWALGGSEAELAAFEKEIAAFESELQAYKGKGNPEVEKLRYDAATIRETLQAYRHN	8
D-domain SEQ ID NO: 123 (designed binder) MGSWQEFYNRLEAIHMRLFALGGSEAELAAFEKEIAAFESELQAYKGKGNPEVEGLRSDAAPIRDVLQAYRHN	6.47
D-domain SEQ ID NO: 115 (designed binder) MGSWNEFSGRLTAIKDRLAALGGSEAELAAFEKEIAAFESELQAYKGKGNPEVEELRFRAAVIRLWLQAYRHN	3.39
D-domain SEQ ID NO: 122 (designed binder) MGSWLEFHYRLHAIQFRLYALGGSEAELAAFEKEIAAFESELQAYKGKGNPEVETLRHIAALIRNQLQAYRHN	12.7
D-domain SEQ ID NO: 111 (designed binder) MGSWTEFDHRLGAIWERLVALGGSEAELAAFEKEIAAFESELQAYKGKGNPEVEELRFHAAIIRIFLQAYRHN	9.54
D-domain SEQ ID NO: 113 (designed binder) MGSWNEFDNRLQAIWDRLHALGGSEAELAAFEKEIAAFESELQAYKGKGNPEVEELRFHAAMIRITLQAYRHN	9.87
D-domain SEQ ID NO: 112 (designed binder) MGSWTEFHVRLSAIWDRLVALGGSEAELAAFEKEIAAFESELQAYKGKGNPEVEELRFHAAIIRIVLQAYRHN	23.6
D-domain SEQ ID NO: 114 (designed binder) MGSWTEFHERLQAIWFRLHALGGSEAELAAFEKEIAAFESELQAYKGKGNPEVEELRFRAAIIRLYLQAYRHN	12.1
D-domain SEQ ID NO: 121 (designed binder) MGSWSEFEERLAAIGSRLFALGGSEAELAAFEKEIAAFESELQAYKGKGNPEVETLRFDAALIRIYLQAYRHN	4.85
D-domain SEQ ID NO: 120 (designed binder) MGSWHEFYYRLEAIEQRLHALGGSEAELAAFEKEIAAFESELQAYKGKGNPEVETLRFDAALIRIYLQAYRHN	3.73
